Data on one molecule can be found in patent US6818221B2, “Adjuvants and processes to induce a specific type of immune response” (Baylor Research Institute, priority 2000, dated 2004).

Assay [1] concerns OVA-specific CD8+ T cells. Briefly: Cytokines produced in CD8+ T-cell cultures (ELISA). To be noted: CD8+ OT-1 cells. Type of assay: in vivo, mice. Here is the method:
(§1) Four days after injecting with OVA or OVA+LPS, 2.5×10^5 popliteal lymph node cells (footpad injections) or splenocytes (intraperitoneal injections) were plated in triplicate in 96-well flat bottomed plates (Costar, Cambridge, Mass.) in 200 μl of RPMI complete medium (GIBCO BRL, Grand Island, N.Y., US) supplemented with 5% fetal bovine serum (FBS), together with different concentrations (0-500 μg/mL of OVA, or OVA peptide (SIINFEKL, SEQ ID NO:1) (New England Peptide Incorporated, Fitchburg, Mass.). Proliferative responses were assessed after 72 hours of culture in a humidified atmosphere of 5% CO2 in air. Cultures were pulsed with 1.0 μCi [^3H] thymidine for 12 hours, and incorporation of the radionucleotide was measured by β-scintillation spectroscopy (Pulendran, B., et al. 1999. “Distinct dendritic cell subsets differentially regulate the class of immune response in vivo,” Proc Natl Acad Sci USA 96:1036-1041). For cytokine assays, aliquots of culture supernatants were removed after 72 hours, pooled, and assayed for the presence of IFNγ, IL-2, IL-4, IL-5, IL-10, and IL-13 by ELISA.
(§2) IFNγ, IL-2, IL-10, IL-4, IL-5, IL-6, IL-12, IL-13 and TNFα were quantified by ELISA kits from Pharmingen (San Diego, Calif.) using manufacturer's instructions dated 2000.
We next examined the cytokines produced in CD8+ T-cell cultures by ELISA.
A general note: ELISA stands for enzyme-linked immunosorbent assay.

Assay [2] concerns OVA-specific CD4+ T cells. Briefly: IL-13 production by antigen-specific T cells in restimulated cultures (ELISA). Type of assay: in vivo, B6.PL.THY1a (B6.PL) mice. To be noted: route not distinguished (intraperitoneally or subcutaneously). Here is the method: B6.PL.THY1^a (B6.PL) mice reconstituted with OT-2 transgenic T cells were immunized with soluble OVA, E. coli LPS alone, P. gingivalis LPS alone, OVA+E. coli LPS, or OVA+P. gingivalis LPS, either subcutaneously in the footpad or intraperitoneally. Four days later, the draining popliteal lymph nodes (subcutaneous route), or spleens (intraperitoneal route) were removed, and single cell suspensions were restimulated with varying concentrations of OVA (0-500 μg/mL) for 72 hours, and pulsed with [^3H] for 12 hours. The cell populations were then assayed for IL-13 with ELISA. The data presented in FIG. 10 are representative of two independent experiments.
Four days after injecting with OVA or OVA+LPS, 2.5×10^5 popliteal lymph node cells (footpad injections) or splenocytes (intraperitoneal injections) were plated in triplicate in 96-well flat bottomed plates (Costar, Cambridge, Mass.) in 200 μl of RPMI complete medium (GIBCO BRL, Grand Island, N.Y., US) supplemented with 5% fetal bovine serum (FBS), together with different concentrations (0-500 μg/mL of OVA, or OVA peptide (SIINFEKL, SEQ ID NO:1) (New England Peptide Incorporated, Fitchburg, Mass.). Proliferative responses were assessed after 72 hours of culture in a humidified atmosphere of 5% CO2 in air. […]

The subject of assay [3] is OVA-specific CD4+ T cells. Briefly: Cytokine production by antigen-specific T-helper cells in restimulated cultures (ELISA). Type of assay: in vivo, mice. Conditions: CD4+ OT-2 system; culture supernatants after 72 hours OVA restimulation. Here is the method: as §1, §2
Cytokine production by antigen-specific T cells was measured by assaying the culture supernatants from the single cell suspensions of the draining lymph nodes described above for IL-2, IFNγ, IL-4, IL-10 and IL-5.

In assay [4] the test system is OVA-specific CD4+ T cells. Briefly: Clonal expansion of OVA-specific CD4+ T cells in vivo (OT-2 adoptive transfer, flow cytometry). To be noted: OVA with or without LPS adjuvant; footpad or intraperitoneal; Day 4. The arrangement: species or system mice. From the text: OT-2 TCR transgenic mice (strain 426-6), generated by Dr. W. Heath (Walter & Eliza Hall Institute, Melbourne, Australia) and Dr. F. Carbone (Monash University, Melbourne, Australia) were obtained from Dr. J. Kapp (Emory University, Atlanta). OT-1 TCR transgenic mice were purchased from Jackson Laboratory (Bar Harbor, Me.). C57BL/6 mice, B6.PL.THY1^a (B6.PL) mice, and C3H/HeJ mice were purchased from Jackson Laboratory (Bar Harbor, Me.). C3H/HeN mice were purchased from Harlan Sprague Dawley (Indianapolis, Ind.). All mice were kept in microisolator cages in a specific-pathogen free facility. For adoptive transfers, age matched, male C57BL/6 or B6.PL.THY1^a recipients were given 2.5×10^6 of either OT-2 cells or OT-1 TCR transgenic T cells intravenously.
Reconstituted mice (3-5 per group) were injected either intraperitoneally, or in the footpad, with either 2 mg OVA in saline, 2 mg OVA+25 μg E. coli LPS, or 2 mg OVA+25 μg P. gingivalis LPS. Endotoxin activity in saline was measured by LAL QCL-1000 kit, and observed to be below the detection limit. […]
The reconstituted mice were injected with one of the following compositions: soluble endotoxin-free OVA, E. coli LPS alone, P. gingivalis LPS alone, OVA+E. coli LPS, or OVA+P. gingivalis LPS. […] The CD4+ OVA-specific T cell response in either the draining lymph nodes or in the spleen was monitored by flow cytometry (FIG. 2A).

B1: OVA: Chicken OVALBUMIN (Sigma) in PBS, depleted of the endotoxin activity; model soluble protein antigen (protein, UniProt P01012 2-386, looked up)
Ovalbumin: GSIGAASMEFCFDVFKELKVHHANENIFYCPIAIMSALAMVYLGAKDSTRTQINKVVRFDKLPGFGDSIEAQCGTSVNVHSSLRDILNQITKPNDVYSFSLASRLYAEERYPILPEYLQCVKELYRGGLEPINFQTAADQARELINSWVESQTNGIIRNVLQPSSVDSQTAMVLVNAIVFKGLWEKAFKDEDTQAMPFRVTEQESKPVQMMYQIGLFRVASMASEKMKILELPFASGTMSMLVLLPDEVSGLEQLESIINFEKLTEWTSSNVMEERKIKVYLPRMKMEEKYNLTSVLMAMGITDVFSSSANLSGISSAESLKISQAVHAAHAEINEAGREVVGSAEAGVDAASVSEEFRADHPFLFCIKHIATNAVLFFGRCVSP
B1: in assay [1], the IFNγ production entry is recorded as “did not secrete significant levels”, the IL-2 production result is given as “did not secrete significant levels”, the IL-5 production result is “did not secrete significant levels” and the IL-10 production result is on record as “did not secrete significant levels”. The IL-13 production result in assay [2] is on record as “little, if any”. In addition, in assay [3], the IFNγ production entry is recorded as “little, if any”; the IL-2 production entry is listed as “little, if any”; the IL-4 production entry is reported as “little, if any”; the IL-5 production entry is “little, if any”. Besides, the IL-10 production result in assay [3] is given as “little, if any”. The “clonal expansion of OVA-specific CD4+ T cells” value in assay [4] is “significant clonal expansion”.
